# Laboratory results from US11733246B2, “Compositions, imaging, and therapeutic methods targeting folate receptor 1 (FOLR1)” (Indi Molecular, Inc., priority 2020, dated 2023).
# Numbered stars: 1 amine (or outer) side, 2 acyl side, 3 side chain; on linkers, the order of the positions; unused ones are H or OH. Bridge positions count the residues as written; N and C are the ends. Square brackets hold non-standard residues; d marks the D form. Triazole bridges read from a SMILES are 1,4-linked. Side chains are listed from the residue outwards. Peptide text beside a SMILES is read from it. * marks the point of attachment. ξ: configuration not given here. DOTA = O=C(O)CN1CCN(CC(=O)O)CCN(CC(=O)*)CCN(CC(=O)O)CC1; Pteroyl = Nc1nc2ncc(CNc3ccc(C(=O)*)cc3)nc2c(=O)[nH]1; Biotin = O=C1N[C@H]2[C@H](CS[C@H]2CCCCC(=O)*)N1; Butanoyl(4-(4-I-phenyl)) = O=C(CCCc1ccc(I)cc1)*; Butanoyl(4-(4-MePh)) = Cc1ccc(CCCC(=O)*)cc1; dLys(N3) = [N-]=[N+]=NCCCC[C@@H](N)C(=O)O; Lys(N3) = [N-]=[N+]=NCCCC[C@H](N)C(=O)O; γGlu = O=C(O)[C@H](CCC(=O)[*:2])N[*:1]; AEEEA = NCCOCCOCCOCC(=O)O; Pra = C#CC[C@H](N)C(=O)O; ξPra = C#CCC(N)C(=O)O; X2 = NOCC(=O)*
# How the values were obtained:
# [1] = test system: OVCAR3 FOLR1+ cells; experiment: Flow cytometry binding to FOLR1 (+) cells; assay type: cell-based, human; conditions: OVCAR3 vs PC-3, flow cytometry
# Description: Both the kyeet (SEQ ID NO:9) and hshta (SEQ ID NO:6)-derived biligands were tested by flow cytometry for binding to FOLR1 (+) and FOLR1 (−) cell lines (FIGS. 6 and 7). The human ovarian adenocarcinoma-derived cell line OVCAR3 has robust FOLR1 expression and was selected as the FOLR1 (+) cell line. The human prostate adenocarcinoma-derived cell line PC-3 was selected as a FOLR1 (−) cell line.
# Competition at the cellular level was also probed.
# Increasing the serum-bound fraction of the peptide may decrease first pass removal of the heterobiligand, and drive compound retention of tumor over kidney. Constructs bearing the known albumin binder 4-methylphenyl butyric acid (4-MPBA) were synthesized. These compounds were evaluated in vitro to verify binding fidelity to FOLR1. The modified heterobiligands were incubated at 400 nM with OVCAR3 and PC-3 cells for 20 minutes at 37° C. in complete media containing 20% FBS. They both bind to OVCAR3 FOLR1+ cells with similar binding affinities as the original heterobiligand studied (FIG. 14). […] Similar activity of these heterobiligands is anticipated in vivo.
# [2] = Plasma protein binding (equilibrium dialysis), human; assay type: in vitro ADME
# Description: (§1) HTD 96 a/b regenerated cellulose membrane strips with mass cutoff of 12-14 kDa were soaked in ultra-pure water at room temperature for 1 hour. Each swelled membrane was then soaked in 20:80 ethanol:water for 20 minutes.
# (§2) Just prior to the experiment, the membranes were re-soaked in ultra-pure water. Plasma was prepared by thawing under cold water. The plasma was centrifuged to remove any clots and pH was adjusted to 7.0-8.0. Test articles and control compounds were diluted to 2 μM. The dialysis device was loaded by transferring 150 μL of the test article (in triplicate) to the donor side. The dialysis device was placed in a humidified incubator at 37° C. with 5% CO2 in a shaking platform that rotated slowly for 4 hours. After incubation, 50 μL of the supernatant was taken from both sides and analyzed by LC-MS/MS.
# (§3) To optimize the albumin binding potential of the heterobiligand, a plasma protein binding (PPB) experiment was performed. This experiment measured the amount of test article bound and free after equilibrating with plasma. Compound #6305 (folate-hshta-Lys(MPBA)-Gly-Phe-Lys(DOTA) (SEQ ID NO:6)), which contains the MPBA albumin binder, was 96.26% bound to mouse plasma and 98.34% bound to human plasma. […] In mouse and human plasmas 99.6% and 99.5% was bound, respectively.
# [3] = Plasma protein binding (equilibrium dialysis), mouse; assay type: in vitro ADME, CD-1 mouse
# Description: as §1, §2, §3
# [4] = biological target: human recombinant NEP (Homo sapiens, UniProt P08473); assay type: biochemical
# Description: In order to test the susceptibility of GFK and MVK linkers to NEP-mediated cleavage, the peptide (Folate-hshta-Lys(MPBA)-Gly-Phe-Lys(DOTA) (SEQ ID NO:6)) was incubated with human recombinant NEP and analyzed the solution for the presence of cleaved adducts. MALDI was utilized to monitor the cleavage of a PCC heterobiligand that contains a NEP protease recognizable sequence (G-F-K). The PCC concentration was constant and the NEP concentration was titrated down from 10 nM to 1 nM, 0.1 nM, 0.01 nM, and no NEP. The NEP-mediated cleaved adduct was identified by mass. 10 μM PCC containing the GFK linker was combined with varying amounts of NEP. […] Below 0.1 nM no cleavage was observed. • Folate-hshta-Lys(MPBA)-Gly-Phe-Lys(DOTA) (SEQ ID NO:6) • Molecular weight 2231.42
# The NEP-mediated cleavage was also monitored by HPLC. In agreement with the MALDI spectra, the HPLC chromatograms show depletion of the parent brush-border heterobiligand (retention time 17.1 minutes), dose-dependent on the amount of NEP spiked into the sample (10 nM, 1 nM, 0.1 nM, 0.01 nM, and no NEP). An appearance of a new peak (retention time 16.5 minutes) in concert with the depletion of the starting material is presumed to be the cleaved folate-containing peptide.
# In order to test the specificity of NEP, a non-cleavable linker (PEG3) was also assayed.
# To reduce the radioactive dose to the kidney, Indi ^177Lu-7327 was constructed to incorporate a GFK linker that is susceptible to cleavage by enzymes found predominately in the kidney's brush border. These enzymes cleave off the radionuclide-chelator complex, which is quickly eliminated by the kidney for excretion in the urine. The zinc metalloprotease neprilysin (NEP) is expressed with high abundance in the kidney. […] To confirm NEP-mediated cleavage of the GFK linker in Indi 7327, the peptide was incubated with recombinant human NEP at 37° C. for 1 h and analyzed by matrix-assisted laser desorption/ionization mass spectrometry (MALDI-MS) for the evolution of cleaved adducts (FIG. 42). […] The expected cleaved adduct (mass: 1283.16 m/z) appears in the samples containing 10, 1.0, and 0.1 nM NEP. […] Below 0.1 nM NEP, no cleavage was observed. In addition to confirming the selectivity of NEP for the GFK linker, it is also important to note that the remaining portions of the Indi 7327 were impervious to the enzyme.
# human recombinant NEP, sequence (P08473 whole entry): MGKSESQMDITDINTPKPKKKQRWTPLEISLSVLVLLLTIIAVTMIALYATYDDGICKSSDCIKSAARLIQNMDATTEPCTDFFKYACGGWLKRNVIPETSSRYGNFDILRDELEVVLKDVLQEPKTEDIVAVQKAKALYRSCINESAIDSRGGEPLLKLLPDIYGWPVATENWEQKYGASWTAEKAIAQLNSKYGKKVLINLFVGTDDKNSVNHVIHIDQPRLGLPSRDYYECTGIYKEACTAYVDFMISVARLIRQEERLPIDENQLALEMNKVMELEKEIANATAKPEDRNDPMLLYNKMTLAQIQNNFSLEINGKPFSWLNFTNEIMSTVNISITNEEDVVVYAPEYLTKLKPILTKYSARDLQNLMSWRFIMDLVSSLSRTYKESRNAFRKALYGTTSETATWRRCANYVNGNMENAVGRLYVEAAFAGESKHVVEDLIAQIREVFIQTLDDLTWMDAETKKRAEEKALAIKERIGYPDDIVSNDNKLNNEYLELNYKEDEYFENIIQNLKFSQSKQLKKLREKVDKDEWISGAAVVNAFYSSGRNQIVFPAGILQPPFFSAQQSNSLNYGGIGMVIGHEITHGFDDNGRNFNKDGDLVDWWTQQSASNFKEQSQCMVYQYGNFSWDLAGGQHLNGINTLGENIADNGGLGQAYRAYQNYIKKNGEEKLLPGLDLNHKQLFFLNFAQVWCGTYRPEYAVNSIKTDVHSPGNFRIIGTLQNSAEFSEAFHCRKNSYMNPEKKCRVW
SMILES,selectivity for FOLR1 (+) cells over FOLR1 (−) cells [1],"recovery at 4 h, 2 μM ([2]; human)","fraction unbound at 4 h, 2 μM ([2]; human, plasma)","recovery at 4 h, 2 μM ([3]; CD-1, mouse)","fraction unbound at 4 h, 2 μM ([3]; CD-1, mouse, plasma)",in vitro Assay Data (NEP assay) [4],further results
C[C@H](O)[C@H]1NC(=O)[C@@H](Cc2ccc(O)cc2)NC(=O)[C@@H](CCCNC(=N)N)NC(=O)[C@@H](CCC(=O)O)NC(=O)[C@@H](CC(=O)O)NC(=O)[C@@H](NC(=O)[C@H](Cc2cn(CCOCCOCCOCCNC(=O)CC[C@H](NC(=O)c3ccc(NCc4cnc5nc(N)[nH]c(=O)c5n4)cc3)C(=O)O)nn2)NC(=O)CCOCCOCCOCCOCCOCCOCCOCCOCCOCCOCCNC(=O)CCOCCOCCOCCOCCOCCOCCOCCOCCOCCOCCNC(=O)CCCC[C@@H]2SC[C@@H]3NC(=O)N[C@@H]32)Cc2cn(nn2)CCCC[C@@H](C(N)=O)NC1=O [Folate-deryt],excellent selectivity for FOLR1 (+) cells,–,–,–,–,–,–
"C[C@@H](O)[C@@H]1NC(=O)[C@H](CCCCN)NC(=O)[C@@H](Cc2c[nH]c3ccccc23)NC(=O)[C@H](Cc2ccccc2)NC(=O)[C@@H](NC(=O)[C@H](N)Cc2ccccc2)CSSC[C@@H](C(=O)N[C@H](CO)[C@@H](C)O)NC1=O [Octreotide Acetate, reference compound]",–,–,–,–,–,–,"recovery at 4 h, 2 μM ([2]; Hu (human plasma), recovery in plasma protein binding assay, read-out: (% Recovery)): 84.3%; fraction unbound at 4 h, 2 μM ([2]; Hu (human plasma), read-out: Plasma % Bound): 0.406; recovery at 4 h, 2 μM ([3]; Mu (CD-1 mouse plasma), recovery in plasma protein binding assay, read-out: (% Recovery)): 84.5%; fraction unbound at 4 h, 2 μM ([3]; Mu (CD-1 mouse plasma), read-out: Plasma % Bound): 0.376"
C[C@H](O)[C@H]1NC(=O)[C@@H](Cc2c[nH]cn2)NC(=O)[C@@H](CO)NC(=O)[C@@H](Cc2c[nH]cn2)NC(=O)[C@@H](NC(=O)[C@H](Cc2cn(CCOCCOCCOCCNC(=O)CC[C@H](NC(=O)c3ccc(NCc4cnc5nc(N)[nH]c(=O)c5n4)cc3)C(=O)O)nn2)NC(=O)CCOCCOCCOCCOCCOCCOCCOCCOCCOCCOCCNC(=O)CCOCCOCCOCCOCCOCCOCCOCCOCCOCCOCCNC(=O)CCCC[C@@H]2SC[C@@H]3NC(=O)N[C@@H]32)Cc2cn(nn2)CCCC[C@@H](C(N)=O)NC(=O)[C@@H](C)NC1=O [Tz heterobiligand],high selectivity for FOLR1 (+) cells,–,–,–,–,–,–
"C[C@@H]1NC(=O)[C@H]([C@@H](C)O)NC(=O)[C@H](Cc2cnc[nH]2)NC(=O)[C@H](CO)NC(=O)[C@H](Cc2cnc[nH]2)NC(=O)C(NC(=O)CC[C@H](NC(=O)c2ccc(NCc3cnc4nc(N)[nH]c(=O)c4n3)cc2)C(=O)O)Cc2cn(nn2)CCCC[C@H](C(=O)NCCOCCOCCOCC(=O)N[C@H](CCCCNC(=O)CN2CCN(CC(=O)O)CCN(CC(=O)O)CCN(CC(=O)O)CC2)C(N)=O)NC1=O (some centres unmarked) [compound 1189, Fol-hshta-PEG3-Lys(DOTA)] ({Pteroyl-γGlu}-[ξPra]HSHTA[dLys(N3)][AEEEA][dK](DOTA)-NH2; triazole 1-7)",–,102%,0.54,97.4%,0.705,resistant to NEP,–
"Cc1ccc(CCCC(=O)NCCCC[C@@H](NC(=O)[C@H]2CCCCn3cc(nn3)CC(NC(=O)CC[C@H](NC(=O)c3ccc(NCc4cnc5nc(N)[nH]c(=O)c5n4)cc3)C(=O)O)C(=O)N[C@@H](Cc3cnc[nH]3)C(=O)N[C@@H](CO)C(=O)N[C@@H](Cc3cnc[nH]3)C(=O)N[C@@H]([C@@H](C)O)C(=O)N[C@@H](C)C(=O)N2)C(=O)NCC(=O)N[C@H](Cc2ccccc2)C(=O)N[C@H](CCCCNC(=O)COCCOCCOCCNC(=O)CN2CCN(CC(=O)O)CCN(CC(=O)O)CCN(CC(=O)O)CC2)C(=O)O)cc1 (stereo partly drawn) [compound 3302, Fol-hshta-Lys(4-MPBA)-Gly-Phe-Lys(PEG3-DOTA)] ({Pteroyl-γGlu}-[ξPra]HSHTA[dLys(N3)][dK](Butanoyl(4-(4-MePh)))G[dF][dK]([AEEEA-DOTA])-OH; triazole 1-7)",–,88.1%,0.051,103%,0.035,Cleavage of -G-F-K-,–
"Cc1ccc(CCCC(=O)NCCCC[C@H](NC(=O)[C@@H]2CCCCn3cc(nn3)C[C@H](NC(=O)CC[C@H](NC(=O)c3ccc(NCc4cnc5nc(N)[nH]c(=O)c5n4)cc3)C(=O)O)C(=O)N[C@H](Cc3cnc[nH]3)C(=O)N[C@H](CO)C(=O)N[C@H](Cc3cnc[nH]3)C(=O)N[C@H]([C@H](C)O)C(=O)N[C@H](C)C(=O)N2)C(=O)NCC(=O)N[C@@H](Cc2ccccc2)C(=O)N[C@@H](CCCCNC(=O)CON)C(=O)O)cc1 [compound 3304, Fol-hshta-Lys(4-MPBA)-Gly-Phe-Lys(AO)] ({Pteroyl-γGlu}-[Pra][dH][dS][dH][dT][dA][Lys(N3)]K(Butanoyl(4-(4-MePh)))GFK(X2)-OH; triazole 1-7)",–,–,–,–,–,Cleavage of -G-F-K-,–
"C[C@@H]1NC(=O)[C@H]([C@@H](C)O)NC(=O)[C@H](Cc2cnc[nH]2)NC(=O)[C@H](CO)NC(=O)[C@H](Cc2cnc[nH]2)NC(=O)C(NC(=O)CC[C@H](NC(=O)c2ccc(NCc3cnc4nc(N)[nH]c(=O)c4n3)cc2)C(=O)O)Cc2cn(nn2)CCCC[C@H](C(=O)NCCOCCOCCOCC(=O)NCC(=O)N[C@H](Cc2ccccc2)C(=O)N[C@H](CCCCNC(=O)CN2CCN(CC(=O)O)CCN(CC(=O)O)CCN(CC(=O)O)CC2)C(=O)O)NC1=O (stereo partly drawn) [compound 6307, Fol-hshta-PEG3-Gly-Phe-Lys(DOTA)] ({Pteroyl-γGlu}-[ξPra]HSHTA[dLys(N3)][AEEEA]G[dF][dK](DOTA)-OH; triazole 1-7)",–,81.6%,0.587,68.9%,0.594,Cleavage of -G-F-K-,–
"CSCC[C@H](NC(=O)[C@H](CCCCNC(=O)CCCc1ccc(I)cc1)NC(=O)[C@@H]1CCCCn2cc(nn2)C[C@H](NC(=O)CC[C@H](NC(=O)c2ccc(NCc3cnc4nc(N)[nH]c(=O)c4n3)cc2)C(=O)O)C(=O)N[C@H](Cc2c[nH]cn2)C(=O)N[C@H](CO)C(=O)N[C@H](Cc2c[nH]cn2)C(=O)N[C@H]([C@H](C)O)C(=O)N[C@H](C)C(=O)N1)C(=O)N[C@H](C(=O)N[C@@H](CCCCNC(=O)CN1CCN(CC(=O)O)CCN(CC(=O)O)CCN(CC(=O)O)CC1)C(=O)O)C(C)C [compound #1306, Fol-hshta-Lys(4-IPBA)-Met-Val-Lys(DOTA)] ({Pteroyl-γGlu}-[Pra][dH][dS][dH][dT][dA][Lys(N3)]K(Butanoyl(4-(4-I-phenyl)))MVK(DOTA)-OH; triazole 1-7)",–,–,–,–,–,Cleavage of -M-V-K-,recovery [2]: 84.8%; recovery [3]: 82.7%
C[C@H](O)[C@H]1NC(=O)[C@@H](CCC(=O)O)NC(=O)[C@@H](CCC(=O)O)NC(=O)[C@@H](Cc2ccc(O)cc2)NC(=O)[C@@H](CCCCN)NC(=O)[C@@H](NC(=O)COCCOCCOCCNC(=O)CCCC[C@@H]2SC[C@@H]3NC(=O)N[C@@H]32)Cc2cn(nn2)CCCC[C@@H](C(N)=O)NC1=O [kyeet] ({Biotin-AEEEA}-[Pra][dK][dY][dE][dE][dT][Lys(N3)]-NH2; triazole 1-7),slight binding selectivity for FOLR1 (+) cells,–,–,–,–,–,–
